Assay [1] addresses T1, human CD73 on the cell surface of CHOK1-huCD73-3F4 cells (Huabo Biopharm) (human, UniProt P21589 27-549).
T1 sequence (looked up): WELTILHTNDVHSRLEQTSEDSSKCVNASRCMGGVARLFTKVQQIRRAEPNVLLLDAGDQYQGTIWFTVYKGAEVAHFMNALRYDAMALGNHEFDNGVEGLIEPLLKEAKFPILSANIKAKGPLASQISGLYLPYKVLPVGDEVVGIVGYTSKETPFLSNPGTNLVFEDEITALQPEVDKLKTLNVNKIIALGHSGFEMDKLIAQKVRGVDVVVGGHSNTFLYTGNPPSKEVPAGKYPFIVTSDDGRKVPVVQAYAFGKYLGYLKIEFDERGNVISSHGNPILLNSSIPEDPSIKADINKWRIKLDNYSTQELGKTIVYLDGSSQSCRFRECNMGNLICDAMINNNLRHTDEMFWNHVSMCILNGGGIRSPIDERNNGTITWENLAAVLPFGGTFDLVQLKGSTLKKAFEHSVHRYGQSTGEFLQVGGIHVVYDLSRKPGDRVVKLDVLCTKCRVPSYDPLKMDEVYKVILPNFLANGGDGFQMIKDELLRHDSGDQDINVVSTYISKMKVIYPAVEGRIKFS
The experiment in a line: cell-based or functional assay.

Assay [2] has as its target T2, Trypsin inhibitor type 1-S from Glycine max (Sigma, T-2327) (Glycine max, UniProt P01070 25-205).
T2 construct: Non-target molecule, amine-coupled to a CM5 chip
T2 sequence (looked up): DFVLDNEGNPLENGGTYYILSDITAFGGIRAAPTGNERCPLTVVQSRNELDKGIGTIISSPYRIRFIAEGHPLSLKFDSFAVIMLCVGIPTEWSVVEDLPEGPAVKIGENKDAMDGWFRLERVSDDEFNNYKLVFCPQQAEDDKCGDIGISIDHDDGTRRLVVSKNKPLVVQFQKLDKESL
The experiment in a line: SPR, Biacore 8K, trypsin inhibitor immobilized on CM5 chip. As to the method: (§1) The non-specific adsorption effect of antigen-binding proteins and non-target molecules were determined by using the SPR method.
(§2) The series sensor chip CM5 (GE, #BR-1005-30) was equilibrated at room temperature for 20-30 min and then loaded into the Biacore 8K (GE) instrument. Lysozyme solution (Sigma, #L3790) from egg and trypsin inhibitor type 1-S (Sigma, #T-2327) from Glycine max were immobilized onto the CM5 chip using an amino coupling kit (GE, #BR-1000-50). The injection buffer was HBS-EP (1×) (GE, #BR-1006-69) and four equilibration cycles were set up. The polyclonal rabbit anti-lysozyme (ABcam, Ab391), anti-trypsin inhibitor antibodies (LifeSpan Biosciences, #LS-C76609), chimeric antibodies and humanized antibodies were diluted with equilibration buffer to 1000 nM, and the flow rate was set at 5 μL/min and injection channels 1, 2 and 3, Flow Cell 1 and 2 were selected. The association time was 10 min and the dissociation time was 10 min.
(SPR reads the build-up and loss of mass on a sensor chip optically.)

Assay [3] has as its target T3, Lysozyme from chicken egg (Sigma, L3790) (chicken, UniProt P00698 19-147).
T3 construct: Non-target molecule, amine-coupled to a CM5 chip
Kind of assay: SPR, Biacore 8K, lysozyme immobilized on CM5 chip. On the procedure: as §1, §2

For assay [4], the target named is T4, recombinant human CD73 protein (ACRO Biosystems, item No. CD3-H52H7) (human, UniProt P21589 27-547).
T4 construct: also called recombinant CD73 protein
T4 sequence (looked up): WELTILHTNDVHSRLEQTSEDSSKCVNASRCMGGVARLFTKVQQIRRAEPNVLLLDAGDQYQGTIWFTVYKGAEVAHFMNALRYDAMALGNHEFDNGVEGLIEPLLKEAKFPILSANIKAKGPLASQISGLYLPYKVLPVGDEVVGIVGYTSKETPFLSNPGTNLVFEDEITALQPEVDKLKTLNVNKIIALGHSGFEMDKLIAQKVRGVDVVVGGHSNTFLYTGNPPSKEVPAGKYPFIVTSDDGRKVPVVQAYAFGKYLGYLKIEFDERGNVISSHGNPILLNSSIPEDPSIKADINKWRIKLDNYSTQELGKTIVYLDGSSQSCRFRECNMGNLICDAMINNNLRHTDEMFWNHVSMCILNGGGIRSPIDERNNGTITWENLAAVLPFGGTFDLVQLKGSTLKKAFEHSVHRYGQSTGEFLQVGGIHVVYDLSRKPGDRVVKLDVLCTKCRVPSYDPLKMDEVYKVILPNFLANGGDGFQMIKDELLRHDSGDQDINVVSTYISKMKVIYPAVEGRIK
The experiment in a line: SPR, Biacore T200, antibody captured on protein A chip, human CD73 as analyte, 1:1 model. As to the method:
In the tests, the assay buffer HBS-EP+ (pH 7.4) and the protein A chip (manufacturer: GE, item No.: 29-1275-56) were used.
The temperatures of a sample chamber and a flow path were set at 25° C., and the protein A chip respectively captured chimeric antibodies or humanized antibodies as ligands and immobilized at about 100 RU. […] After association for 120 s at a flow rate of 30 μL/min, dissociation was carried out for 600 s. Regeneration was then carried out for 60 s with 10 mM Glycine (pH 1.5) at a flow rate of 50 μL/min to implement multi-cycle kinetic detection. A 1:1 binding model was selected for fitting analysis in a Fit local mode to acquire the association rate constant (ka), dissociation rate constant (kd) and dissociation equilibrium rate constant (KD).

The target in assay [5] is T1, human CD73 on the cell surface of …. Kind of assay: flow cytometry on CHOK1-huCD73-3F4 cells, PE-goat anti-human-Fc. On the procedure: All antigen-binding proteins were diluted to 30 μg/ml with 1% BSA in PBS solution (1% BSA/PBS) and then 3-fold diluted for 11 gradients. The diluted antigen-binding proteins were added to a 96-well U-shaped plate at 20 μL per well; and a negative control (with 1% BSA/PBS added only) was set up at the same time. The suspension of cells (CHOK1-huCD73-3F4, Huabo Biopharm) expressing human CD73 during the logarithmic growth phase were centrifuged (1000 rpm×5 min) to discard the culture medium; and the cells were resuspended with 1% BSA/PBS until the density of viable cells was 1×10⁶/mL, and were added, at 20 μL (2×10⁴ cells) per well, to the 96-well U-shaped plate with the […] antigen-binding protein to react for 30 min at room temperature. After reaction, the 96-well U-shaped plate was resuspended with 1% BSA/PBS, centrifuged (300 g×3 min) to discard the supernatant, and washed once in such a way. PE-goat anti-human-Fc (Jackson ImmunoResearch, #109-115098) diluted at 1:200 was added to react for 15 min in the dark at room temperature. After reaction, the 96-well U-shaped plate was resuspended with 1% BSA/PBS, centrifuged (300 g×3 min) to discard the supernatant, washed three times in such a way, and finally resuspended with 100 μL of 1% BSA/PBS for each wall; and the fluorescence intensity of a PE channel was detected with a flow cytometer (BD, #Cantoll).

Numbering of substitutions follows the chain as printed.

T3 sequence (P00698 19-147 limits assumed): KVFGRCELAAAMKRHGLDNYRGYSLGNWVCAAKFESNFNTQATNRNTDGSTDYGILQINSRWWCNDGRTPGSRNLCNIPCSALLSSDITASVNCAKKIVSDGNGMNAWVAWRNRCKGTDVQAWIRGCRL

B1: 900567 (human-mouse chimeric anti-CD73 antigen-binding protein expressed from 124A9 variable regions) (antibody, V domains shown)
VH: QVQLQQPGAELVKPGASVKLSCKASGYTFTSYWIHWVKQRPGQGLDWIGMIHPNSGSTYYNEKFKSKATLTVDKSSSTAYMQLSSLTSEDSAVYYCARYYGSDYEWYFDVWGTGTTVTVSS
VL: DIVMTQSQKFMSTSVGDRVSITCKASQNVRTAVVWYQQNPGQSPKALIYLASNRHTGVPDRFTGSGSGTDFTLTISNVHSEDLADYFCLQHWNYPYTFGGGTKLEIK
As usually defined, the Kd is the free concentration of one partner at which half of the binding sites on the other are occupied at equilibrium, for simple one-to-one binding. Usually koff stands for the first-order rate constant of dissociation. The kon is the second-order rate constant of association. One may read the EC50 as the concentration at which the effect is half-maximal. Low readings indicate an effect from little substance, high ones a need for much substance. For the molecule B1, in assay [1], the “EC50 of inhibition of the enzyme activity of CD73 on cell membrane (AMP/ATP, CellTiter-Glo)” value (“EC50 of inhibition … (AMP/ATP, CellTiter-Glo)” below) worked out at 0.025 µg/mL. Besides, the binding result in assay [2] was “no binding (tested: 1000 nM antibody; 20 RU)”. For the same molecule, the binding result in assay [3] was “no binding (tested: 1000 nM antibody; 20 RU)”. Further, in assay [4], the Kd was found to be 0.652 nM, the koff is 0.00049 s⁻¹ and the kon is 752000 M⁻¹ s⁻¹. The molecule also had an EC50 in assay [5] of 0.065 µg/mL.

B2: 900725 (humanized anti-CD73 antigen-binding protein) (antibody, V domains shown)
VH: QVQLVQSGAEVKKPGASVKLSCKASGYTFTSYWIHWVRQAPGQGLEWIGMIHPNSGSTYYNEKFKGRATLTVDKSTSTAYMELSSLRSEDTAVYYCARYYGSDYEWYFDVWGQGTTVTVSS
VL: DIQMTQSPSSMSASVGDRVTITCKASQNVRTAVVWYQQKPGKAPKALIYLASNRHTGVPDRFSGSGSGTDFTLTISSLQPEDFATYFCLQHWNYPYTFGQGTKLEIK
With B2, the “EC50 of inhibition … (AMP/ATP, CellTiter-Glo)” value in assay [1] is 0.0697 µg/mL. Besides, the binding result in assay [2] is recorded as “no binding (tested: 1000 nM antibody; 20 RU)”. The binding result in assay [3] is recorded as “no binding (tested: 1000 nM antibody; 20 RU)”. Moreover, in assay [4], the Kd is 0.201 nM, the koff turned out to be 0.000126 s⁻¹ and the kon is 626000 M⁻¹ s⁻¹. In addition, a half-maximal effect in assay [5] (EC50) was put at 0.106 µg/mL.

B3: 900726 (humanized anti-CD73 antigen-binding protein) (antibody, V domains shown)
VH: B2 VH
VL: B2 VL with M11L, F87Y
With B3, the binding result in assay [2] is given as “no binding (tested: 1000 nM antibody; 20 RU)”. For the same molecule, the binding result in assay [3] is “no binding (tested: 1000 nM antibody; 20 RU)”. Further, in assay [4], the Kd was determined as 2.49 nM, the koff stood at 0.00124 s⁻¹ and the kon amounted to 496000 M⁻¹ s⁻¹. The same molecule yielded an EC50 in assay [5] of 0.174 µg/mL.

B4: 900728 (humanized anti-CD73 antigen-binding protein) (antibody, V domains shown)
VH: B2 VH with L20V, K65Q, A68V, L70M
VL: B2 VL with M11L, F87Y
B4: the “EC50 of inhibition … (AMP/ATP, CellTiter-Glo)” value in assay [1] is 0.0467 µg/mL. In addition, in assay [2], the binding result is given as “no binding (tested: 1000 nM antibody; 20 RU)”. The binding result in assay [3] is “no binding (tested: 1000 nM antibody; 20 RU)”. Also, in assay [4], the Kd amounted to 0.377 nM, the koff was found to be 0.000317 s⁻¹ and the kon worked out at 841000 M⁻¹ s⁻¹. In addition, it took 0.105 µg/mL to reach a half-maximal effect in assay [5] (EC50).

B5: 900727 (humanized anti-CD73 antigen-binding protein) (antibody, V domains shown)
VH: B2 VH with L20V, N61A, E62Q, K65Q, A68V, L70I
VL: B2 VL
For the molecule B5, the binding result in assay [2] is “no binding (tested: 1000 nM antibody; 20 RU)”. For the same molecule, the binding result in assay [3] was “no binding (tested: 1000 nM antibody; 20 RU)”. Moreover, in assay [4], the Kd is 0.789 nM, the koff was found to be 0.000494 s⁻¹ and the kon worked out at 626000 M⁻¹ s⁻¹.

For the origin of these results see patent publication US20240067747A1 (SHANGHAI HUAOTA BIOPHARMACEUTICAL, published 2024).
